B1: UGT76E1: UDP-glycosyltransferase, Arabidopsis thaliana, SEQ ID NO: 11, SEQ ID NO: 12 (protein, listed as Arabidopsis thaliana)
chain: MEELGVKRRIVLVPVPAQGHVTPIMQLGKALYSKGFSITVVLTQYNRVSSSKDFSDFHFLTIPGSLTESDLKNLGPFKFLFKLNQICEASFKQCIGQLLQEQGNDIACVVYDEYMYFSQAAVKEFQLPSVLFSTTSATAFVCRSVLSRVNAESFLLDMKDPKVSDKEFPGLHPLRYKDLPTSAFGPLESILKVYSETVNIRTASAVIINSTSCLESSSLAWLQKQLQVPVYPIGPLHIAASAPSSLLEEDRSCLEWLNKQKIGSVIYISLGSLALMETKDMLEMAWGLRNSNQPFLWVIRPGSIPGSEWTESLPEEFSRLVSERGYIVKWAPQIEVLRHPAVGGFWSHCGWNSTLESIGEGVPMICRPFTGDQKVNARYLERVWRIGVQLEGELDKGTVERAVERLIMDEEGAEMRKRVINLKEKLQASVKSRGSSFSSLDNFVNSLKMMNFM
B2: UGT76E12: UDP-glycosyltransferase, Arabidopsis thaliana, SEQ ID NO: 17, SEQ ID NO: 18 (protein, listed as Arabidopsis thaliana)
chain: MQVLGMEEKPARRSVVLVPFPAQGHISPMMQLAKTLHLKGFSITVVQTKFNYFSPSDDFTHDFQFVTIPESLPESDFKNLGPIQFLFKLNKECKVSFKDCLGQLVLQQSNEISCVIYDEFMYFAEAAAKECKLPNIIFSTTSATAFACRSVFDKLYANNVQAPLKETKGQQEELVPEFYPLRYKDFPVSRFASLESIMEVYRNTVDKRTASSVIINTASCLESSSLSFLQQQQLQIPVYPIGPLHMVASAPTSLLEENKSCIEWLNKQKVNSVIYISMGSIALMEINEIMEVASGLAASNQHFLWVIRPGSIPGSEWIESMPEEFSKMVLDRGYIVKWAPQKEVLSHPAVGGFWSHCGWNSTLESIGQGVPMICRPFSGDQKVNARYLECVWKIGIQVEGELDRGVVERAVKRLMVDEEGEEMRKRAFSLKEQLRASVKSGGSSHNSLEEFVHFIRTL
B3: UGT73E1: UDP-glycosyltransferase, Stevia rebaudiana, SEQ ID NO: 13, SEQ ID NO: 14 (protein, listed as Stevia rebaudiana)
chain: MSPKMVAPPTNLHFVLFPLMAQGHLVPMVDIARILAQRGATVTIITTPYHANRVRPVISRAIATNLKIQLLELQLRSTEAGLPEGCESFDQLPSFEYWKNISTAIDLLQQPAEDLLRELSPPPDCIISDFLFPWTTDVARRLNIPRLVFNGPGCFYLLCIHVAITSNILGENEPVSSNTERVVLPGLPDRIEVTKLQIVGSSRPANVDEMGSWLRAVEAEKASFGIVVNTFEELEPEYVEEYKTVKDKKMWCIGPVSLCNKTGPDLAERGNKAAITEHNCLKWLDERKLGSVLYVCLGSLARISAAQAIELGLGLESINRPFIWCVRNETDELKTWFLDGFEERVRDRGLIVHGWAPQVLILSHPTIGGFLTHCGWNSTIESITAGVPMITWPFFADQFLNEAFIVEVLKIGVRIGVERACLFGEEDKVGVLVKKEDVKKAVECLMDEDEDGDQRRKRVIELAKMAKIAMAEGGSSYENVSSLIRDVTETVRAPH
B4: UGT73C3: UDP-glycosyltransferase, Arabidopsis thaliana, SEQ ID NO: 15, SEQ ID NO: 16 (protein, listed as Arabidopsis thaliana)
chain: MATEKTHQFHPSLHFVLFPFMAQGHMIPMIDIARLLAQRGVTITIVTTPHNAARFKNVLNRAIESGLAINILHVKFPYQEFGLPEGKENIDSLDSTELMVPFFKAVNLLEDPVMKLMEEMKPRPSCLISDWCLPYTSIIAKNFNIPKIVFHGMGCFNLLCMHVLRRNLEILENVKSDEEYFLVPSFPDRVEFTKLQLPVKANASGDWKEIMDEMVKAEYTSYGVIVNTFQELEPPYVKDYKEAMDGKVWSIGPVSLCNKAGADKAERGSKAAIDQDECLQWLDSKEEGSVLYVCLGSICNLPLSQLKELGLGLEESRRSFIWVIRGSEKYKELFEWMLESGFEERIKERGLLIKGWAPQVLILSHPSVGGFLTHCGWNSTLEGITSGIPLITWPLFGDQFCNQKLVVQVLKAGVSAGVEEVMKWGEEDKIGVLVDKEGVKKAVEELMGDSDDAKERRRRVKELGELAHKAVEKGGSSHSNITLLLQDIMQLAQFKN

The nature of this assay: In vitro glycosylation of nootkatol by purified UGTs with UDP-glucose, LC-MS. Format: biochemical. The following applies: 5 mM nootkatol, 15 mM UDP-glucose, 5 μL purified enzyme, overnight at 30° C. An excerpt:
UGT85A1 (SEQ ID NO:9, SEQ ID NO:10), UGT76E1 (SEQ ID NO:11, SEQ ID NO:12), UGT73E1 (SEQ ID NO:13, SEQ ID NO:14), UGT73C3 (SEQ ID NO:15, SEQ ID NO:16), and UGT76E12 (SEQ ID NO:17, SEQ ID NO:18) were each cloned into a T7 promoter-based vector comprising a sequence coding for an N-terminal 6×His-tag. The vector backbone was linearized with restriction endonucleases, the UGT genes were amplified by PCR, and the constructs were verified by DNA sequencing.
Competent E. coli expression cells were transformed individually with a UGT-comprising plasmid. A colony from each transformation was inoculated individually in 6 mL NZCYM broth comprising an antibiotic. The pre-culture was incubated overnight at 37° C. and 220 rpm and used to inoculate 100 mL NZYCM broth with an antibiotic at an initial OD600 of 0.2. After growth at 37° C. until an OD600 of 0.6-0.8, the cells were induced for protein expression using 0.2 mM IPTG, followed by incubation at 20° C. and 120 rpm for 18-20 h.
Cells were harvested by centrifugation at approximately 4° C. and approximately 4000 g for 20 min and resuspended in 3 mL 10 mM Tris-HCl, pH 8.0 plus protease inhibitor. After cell disruption, 6 mL 1×HIS binding buffer (20 mM Tris-HCl, pH 7.5, 500 mM NaCl, and 10 mM imidazole) were added to the suspension. Cell crude extracts were centrifuged at 4° C. and approximately 4000 g for 30 min. The supernatant was collected, and 300 μL of nickel beads were added; the mixture was incubated with gentle mixing at 4° C. for 2 h. The mixture was centrifuged at 4° C. and approximately 1000 g for 3 min, the supernatant was removed, and the beads were resuspended with 3 mL 1×HIS binding buffer. This step was performed twice. The beads were then resuspended and mixed gently in 500 μL 1×HIS Binding Buffer. The mixture was then transferred into a cold Eppendorf tube, centrifuged at 4° C. and approximately 1000 g, and the supernatant was removed. The beads were resuspended in 400 μL elution buffer (20 mM Tris-HCl, pH 7.5, 500 mM NaCl, 250 mM imidazole), mixed gently, centrifuged at 4° C. and approximately 1000 g for 3 min, and the supernatant was collected. This step was performed three times to collect three elution fractions. Glycerol was added in a 1:1 ratio to each elution tube and protein solutions were stored at −80° C. The fractions were analyzed by SDS-PAGE and Western Blot. The fraction comprising the UGT with the highest purity was used for the subsequent in vitro assay.
UGT85A1 (SEQ ID NO:9, SEQ ID NO:10), UGT76E1 (SEQ ID NO:11, SEQ ID NO:12), UGT73E1 (SEQ ID NO:13, SEQ ID NO:14), UGT73C3 (SEQ ID NO:15, SEQ ID NO:16), and UGT76E12 (SEQ ID NO:17, SEQ ID NO:18) were employed for in vitro glycosylation of nootkatol in the presence of the sugar donor, UDP-glucose. The reaction was carried out in a final volume of 50 μL buffer (100 mM Tris, pH 8.0, 5 mM MgCl2, 1 mM KCl), 5 mM nootkatol in DMSO, 15 mM UDP-glucose, and 5 μL purified enzyme solution. The reaction was incubated overnight at 30° C. The sample was analyzed by LC-MS on a BEH C18-column (100 mm×2.1 mm, 5 μm). Mobile phase A was 0.1% formic acid in water; mobile phase B was 0.1% formic acid in acetonitrile. B concentration gradient was 0-1 min, 1%; 1-5 min, 100%; 5-7 min, 100%; 7-7.1 min, 1%; 7.1-9 min, 1%. The injection volume was 5 μL. […]
Turning to B1, the “Area-under-curve of the peak of glycosylated nootkatol (nootkatol+1 glucose) produced in vitro” value is listed as 1566336. In the case of B2 it was 820053; in that of B3, 1288384. The value for B4 was 1211635.

Source of the values: patent US20180327723A1, “Production of Glycosylated Nootkatol in Recombinant Hosts” (Evolva SA, priority 2015, published 2018).
